The text below walks through data of the Human Domainome abundance scans (Beltran et al. 2025).

± gives the uncertainty stated by the source.

The series in a line: abundance fitness (aPCA) (normalised: wild type 0, dead -1); higher = more abundant; growth selection in yeast, the domain comes from the species named. Conditions: Saccharomyces cerevisiae (strain ATCC 204508 / S288c).
On to “E3 ubiquitin-protein ligase RSP5 T326A, P39940”, for which the abundance fitness is -0.023 ± 0.05.

As for “E3 ubiquitin-protein ligase RSP5 T326C, P39940”, the abundance fitness is -0.033 ± 0.07.

On to “E3 ubiquitin-protein ligase RSP5 T326D, P39940”, for which the abundance fitness amounted to 0.094 ± 0.068.

The substance “E3 ubiquitin-protein ligase RSP5 T326E, P39940” registered an abundance fitness of 0.055 ± 0.052.

Substance “E3 ubiquitin-protein ligase RSP5 T326F, P39940” registered an abundance fitness of -0.02 ± 0.09.

“E3 ubiquitin-protein ligase RSP5 T326G, P39940” gave an abundance fitness of -0.18 ± 0.048.

“E3 ubiquitin-protein ligase RSP5 T326H, P39940” came in with an abundance fitness of -0.051 ± 0.078.

For the substance “E3 ubiquitin-protein ligase RSP5 T326I, P39940”, the abundance fitness was -0.266 ± 0.2.

As to “E3 ubiquitin-protein ligase RSP5 T326K, P39940”, the abundance fitness was 0.068 ± 0.051.

Take “E3 ubiquitin-protein ligase RSP5 T326L, P39940”: the abundance fitness is -0.023 ± 0.048.

Substance “E3 ubiquitin-protein ligase RSP5 T326M, P39940” gave an abundance fitness of 0.008 ± 0.07.

As to “E3 ubiquitin-protein ligase RSP5 T326N, P39940”, the abundance fitness worked out at 0.105 ± 0.087.

For the substance “E3 ubiquitin-protein ligase RSP5 T326P, P39940”, the abundance fitness is -0.652 ± 0.079.

Take “E3 ubiquitin-protein ligase RSP5 T326Q, P39940”: the abundance fitness was -0.071 ± 0.057.

“E3 ubiquitin-protein ligase RSP5 T326R, P39940” returned an abundance fitness of -0.068 ± 0.042.

For the substance “E3 ubiquitin-protein ligase RSP5 T326S, P39940”, the abundance fitness was 0.014 ± 0.054.

“E3 ubiquitin-protein ligase RSP5 T326V, P39940” displayed an abundance fitness of -0.008 ± 0.051.

For “E3 ubiquitin-protein ligase RSP5 T326W, P39940”, the abundance fitness is -0.207 ± 0.08.

“E3 ubiquitin-protein ligase RSP5 T326Y, P39940”: the abundance fitness is -0.061 ± 0.072.

The substance “E3 ubiquitin-protein ligase RSP5 T327A, P39940” gave an abundance fitness of -0.049 ± 0.046.

In the case of “E3 ubiquitin-protein ligase RSP5 T327C, P39940”, the abundance fitness was -0.001 ± 0.06.

“E3 ubiquitin-protein ligase RSP5 T327D, P39940” showed an abundance fitness of 0.121 ± 0.07.

The substance “E3 ubiquitin-protein ligase RSP5 T327E, P39940” had an abundance fitness of 0.105 ± 0.056.

As to “E3 ubiquitin-protein ligase RSP5 T327G, P39940”, the abundance fitness is -0.037 ± 0.046.

The substance “E3 ubiquitin-protein ligase RSP5 T327H, P39940” showed an abundance fitness of 0.019 ± 0.16.

Take “E3 ubiquitin-protein ligase RSP5 T327L, P39940”: the abundance fitness is -0.049 ± 0.055.

“E3 ubiquitin-protein ligase RSP5 T327M, P39940” showed an abundance fitness of 0.103 ± 0.077.

“E3 ubiquitin-protein ligase RSP5 T327N, P39940” yielded an abundance fitness of 0.12 ± 0.12.

“E3 ubiquitin-protein ligase RSP5 T327P, P39940” yielded an abundance fitness of -0.258 ± 0.068.

“E3 ubiquitin-protein ligase RSP5 T327Q, P39940” had an abundance fitness of -0.112 ± 0.057.

The substance “E3 ubiquitin-protein ligase RSP5 T327R, P39940” registered an abundance fitness of -0.067 ± 0.044.

In turn, “E3 ubiquitin-protein ligase RSP5 T327S, P39940” showed an abundance fitness of 0.038 ± 0.05.

For “E3 ubiquitin-protein ligase RSP5 T327W, P39940”, the abundance fitness is -0.17 ± 0.053.

“E3 ubiquitin-protein ligase RSP5 T327Y, P39940”: the abundance fitness is -0.639 ± 0.27.

“E3 ubiquitin-protein ligase RSP5 T342D, P39940” registered an abundance fitness of 0.173 ± 0.076.

With “E3 ubiquitin-protein ligase RSP5 T342E, P39940”, the abundance fitness was -0.377 ± 0.05.

As for “E3 ubiquitin-protein ligase RSP5 T342G, P39940”, the abundance fitness was -0.255 ± 0.045.

The substance “E3 ubiquitin-protein ligase RSP5 T342H, P39940” came in with an abundance fitness of -0.455 ± 0.3.

In turn, “E3 ubiquitin-protein ligase RSP5 T342K, P39940” returned an abundance fitness of -0.824 ± 0.058.

As to “E3 ubiquitin-protein ligase RSP5 T342L, P39940”, the abundance fitness was -0.074 ± 0.065.

In turn, “E3 ubiquitin-protein ligase RSP5 T342M, P39940” showed an abundance fitness of -0.327 ± 0.17.

With “E3 ubiquitin-protein ligase RSP5 T342N, P39940”, the abundance fitness is -0.225 ± 0.13.

On to “E3 ubiquitin-protein ligase RSP5 T342P, P39940”, for which the abundance fitness was -0.556 ± 0.074.

Substance “E3 ubiquitin-protein ligase RSP5 T342Q, P39940” gave an abundance fitness of -0.226 ± 0.067.

The substance “E3 ubiquitin-protein ligase RSP5 T342R, P39940” gave an abundance fitness of -0.738 ± 0.044.

“E3 ubiquitin-protein ligase RSP5 T342V, P39940” yielded an abundance fitness of -0.315 ± 0.047.

In the case of “E3 ubiquitin-protein ligase RSP5 T342W, P39940”, the abundance fitness is -0.865 ± 0.054.

Take “E3 ubiquitin-protein ligase RSP5 T354A, P39940”: the abundance fitness was -0.152 ± 0.052.

“E3 ubiquitin-protein ligase RSP5 T354C, P39940” showed an abundance fitness of -0.196 ± 0.088.

“E3 ubiquitin-protein ligase RSP5 T354E, P39940” gave an abundance fitness of -0.163 ± 0.054.

“E3 ubiquitin-protein ligase RSP5 T354F, P39940” registered an abundance fitness of -0.374 ± 0.093.

“E3 ubiquitin-protein ligase RSP5 T354G, P39940” returned an abundance fitness of -0.223 ± 0.043.

“E3 ubiquitin-protein ligase RSP5 T354H, P39940” registered an abundance fitness of 0.187 ± 0.14.

“E3 ubiquitin-protein ligase RSP5 T354K, P39940” registered an abundance fitness of -0.147 ± 0.082.

“E3 ubiquitin-protein ligase RSP5 T354L, P39940”: the abundance fitness was -0.266 ± 0.049.

On to “E3 ubiquitin-protein ligase RSP5 T354P, P39940”, for which the abundance fitness was -1.07 ± 0.078.

“E3 ubiquitin-protein ligase RSP5 T354Q, P39940” gave an abundance fitness of -0.165 ± 0.056.

On to “E3 ubiquitin-protein ligase RSP5 T354R, P39940”, for which the abundance fitness is -0.219 ± 0.044.

“E3 ubiquitin-protein ligase RSP5 T354S, P39940”: the abundance fitness was -0.049 ± 0.049.

“E3 ubiquitin-protein ligase RSP5 T354V, P39940” showed an abundance fitness of -0.445 ± 0.043.

Substance “E3 ubiquitin-protein ligase RSP5 T354W, P39940” came in with an abundance fitness of -0.658 ± 0.065.

As for “E3 ubiquitin-protein ligase RSP5 T356A, P39940”, the abundance fitness is -0.237 ± 0.048.

In turn, “E3 ubiquitin-protein ligase RSP5 T356C, P39940” returned an abundance fitness of 0.032 ± 0.064.

“E3 ubiquitin-protein ligase RSP5 T356D, P39940” registered an abundance fitness of -0.405 ± 0.08.

Consider “E3 ubiquitin-protein ligase RSP5 T356E, P39940”, for which the abundance fitness was -0.3 ± 0.054.

Take “E3 ubiquitin-protein ligase RSP5 T356G, P39940”: the abundance fitness was -0.465 ± 0.044.

For “E3 ubiquitin-protein ligase RSP5 T356H, P39940”, the abundance fitness is -0.483 ± 0.23.

As to “E3 ubiquitin-protein ligase RSP5 T356I, P39940”, the abundance fitness came to 0.404 ± 0.26.

As to “E3 ubiquitin-protein ligase RSP5 T356K, P39940”, the abundance fitness is -0.225 ± 0.066.

“E3 ubiquitin-protein ligase RSP5 T356L, P39940”: the abundance fitness is -0.143 ± 0.047.

“E3 ubiquitin-protein ligase RSP5 T356M, P39940” returned an abundance fitness of -0.005 ± 0.066.

With “E3 ubiquitin-protein ligase RSP5 T356N, P39940”, the abundance fitness is -0.285 ± 0.18.

On to “E3 ubiquitin-protein ligase RSP5 T356P, P39940”, for which the abundance fitness was -0.96 ± 0.069.

Take “E3 ubiquitin-protein ligase RSP5 T356Q, P39940”: the abundance fitness is -0.121 ± 0.05.

In turn, “E3 ubiquitin-protein ligase RSP5 T356R, P39940” registered an abundance fitness of -0.32 ± 0.042.

In turn, “E3 ubiquitin-protein ligase RSP5 T356S, P39940” had an abundance fitness of 0.034 ± 0.05.

“E3 ubiquitin-protein ligase RSP5 T356V, P39940” came in with an abundance fitness of -0.124 ± 0.052.

In turn, “E3 ubiquitin-protein ligase RSP5 T356Y, P39940” had an abundance fitness of -0.381 ± 0.12.

Substance “E3 ubiquitin-protein ligase RSP5 T357A, P39940” returned an abundance fitness of -0.304 ± 0.048.

As for “E3 ubiquitin-protein ligase RSP5 T357C, P39940”, the abundance fitness is -0.142 ± 0.065.

In turn, “E3 ubiquitin-protein ligase RSP5 T357D, P39940” had an abundance fitness of -0.711 ± 0.06.

On to “E3 ubiquitin-protein ligase RSP5 T357E, P39940”, for which the abundance fitness was -0.477 ± 0.058.

For the substance “E3 ubiquitin-protein ligase RSP5 T357F, P39940”, the abundance fitness is -1.11 ± 0.28.

Regarding “E3 ubiquitin-protein ligase RSP5 T357G, P39940”, the abundance fitness was -0.81 ± 0.047.

The substance “E3 ubiquitin-protein ligase RSP5 T357H, P39940” gave an abundance fitness of -0.578 ± 0.16.

“E3 ubiquitin-protein ligase RSP5 T357I, P39940” displayed an abundance fitness of -0.735 ± 0.17.

On to “E3 ubiquitin-protein ligase RSP5 T357K, P39940”, for which the abundance fitness is -0.393 ± 0.069.

In turn, “E3 ubiquitin-protein ligase RSP5 T357L, P39940” returned an abundance fitness of -0.488 ± 0.08.

“E3 ubiquitin-protein ligase RSP5 T357M, P39940”: the abundance fitness was -0.33 ± 0.094.

As to “E3 ubiquitin-protein ligase RSP5 T357P, P39940”, the abundance fitness was -0.77 ± 0.073.

As to “E3 ubiquitin-protein ligase RSP5 T357Q, P39940”, the abundance fitness is -0.441 ± 0.07.
